Drawing on publication PMC8942982, “The role of lysine palmitoylation/myristoylation in the function of the TEAD transcription factors” (Scientific Reports, 2022), this text covers Kd for two molecules.

The term Kd denotes the free concentration of one partner at which half of the binding sites on the other are occupied at equilibrium, for simple one-to-one binding.

Common to all, as to experiment: SPR; biotinylated-Avitagged Sd proteins immobilized on sensor chips; Yki^30-146 or Vg^263-382 as analyte; carried out as previously described (ref. 28)
What all share (details): both partners purified
(SPR reads the build-up and loss of mass on a sensor chip optically.)

Assay [1] concerns the target T1, Scalloped, residues 223-440, wild type (Sd^223-440) (Drosophila melanogaster, UniProt P30052 223-440, acylated to completion with Myristoyl-Coenzyme A: a mixture acylated on Cys373 (hydroxylamine-sensitive, 47%) or on Lys350 (hydroxylamine-insensitive, 54%); biotin on the Avitag).
T1 construct: Scalloped (Sd), Drosophila homolog of human TEAD, UniProtKB P30052, residues 223-440; also called wt^Sd
T1 sequence (looked up): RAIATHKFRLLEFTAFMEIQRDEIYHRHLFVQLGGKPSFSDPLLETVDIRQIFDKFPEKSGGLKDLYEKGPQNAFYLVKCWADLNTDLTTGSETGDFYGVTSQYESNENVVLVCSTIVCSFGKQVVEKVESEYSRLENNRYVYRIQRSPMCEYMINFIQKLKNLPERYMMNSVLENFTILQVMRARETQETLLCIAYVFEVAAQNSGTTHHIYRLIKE

The target in assay [2] is T2, Scalloped, residues 223-440, Glu352Gln mutant (Glu352Gln^Sd) (Drosophila melanogaster, UniProt P30052 223-440, Glu352Gln, acylated to completion with Myristoyl-Coenzyme A: predominantly on Lys350 (hydroxylamine-insensitive, 90%), the rest on Cys373 (10%); biotin on the Avitag).
T2 construct: Scalloped (Sd), Drosophila homolog of human TEAD, UniProtKB P30052, residues 223-440, with Glu352Gln; Mutation introduced into wt^Sd; source: E. coli, purified in a similar manner to wt^Sd, treated with Myristoyl-Coenzyme A
T2 sequence (looked up): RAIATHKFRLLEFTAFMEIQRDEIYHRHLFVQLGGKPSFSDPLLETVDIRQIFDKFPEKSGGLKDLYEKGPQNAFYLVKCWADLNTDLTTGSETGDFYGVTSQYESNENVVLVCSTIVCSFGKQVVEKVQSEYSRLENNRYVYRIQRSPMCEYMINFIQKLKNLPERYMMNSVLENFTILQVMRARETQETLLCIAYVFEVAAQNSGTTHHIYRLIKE

The target of assay [3] is T3, Scalloped, residues 223-440, Lys350Ala mutant (Lys350Ala^Sd) (Drosophila melanogaster, UniProt P30052 223-440, Lys350Ala, acylated to completion with Myristoyl-Coenzyme A, only on Cys373 (hydroxylamine-sensitive, 100%); biotin on the Avitag).
T3 construct: Scalloped (Sd), Drosophila homolog of human TEAD, UniProtKB P30052, residues 223-440, with Lys350Ala; Mutation introduced into wt^Sd; source: E. coli, purified in a similar manner to wt^Sd, treated with Myristoyl-Coenzyme A
T3 sequence (looked up): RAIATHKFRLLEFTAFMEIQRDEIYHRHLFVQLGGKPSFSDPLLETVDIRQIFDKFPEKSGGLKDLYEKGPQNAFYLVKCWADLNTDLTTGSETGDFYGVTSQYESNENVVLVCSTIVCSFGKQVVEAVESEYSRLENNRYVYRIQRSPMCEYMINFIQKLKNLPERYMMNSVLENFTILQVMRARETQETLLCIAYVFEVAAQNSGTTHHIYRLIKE

B1: Vestigial, residues 263-382 (Vg^263-382) (domain or fragment, Drosophila melanogaster, UniProt Q26366 263-382, looked up)
chain: ETPMGSGGGGLAGSGQGQAQYLSASCVVFTNYSGDTASQVDEHFSRALNYNNKDSKESSSPMSNRNFPPSFWNSNYVHPIPAPTHHQVSDLYGTATDTGYATDPWVPHAAHYGSYAHAAH
As for B1, the Kd in assay [1] came out at 0.38 nM; in assay [2], 0.37 nM; in assay [3] it was 2.3 nM.

B2: Yorkie, residues 30-146 (Yki^30-146) (domain or fragment, Drosophila melanogaster, UniProt Q45VV3 30-146, looked up)
chain: SNNLVVRVNQDTDDNLQALFDSVLNPGDAKRPLQLPLRMRKLPNSFFTPPAPSHSRANSADSTYDAGSQSSINIGNKASIVQQPDGQSPIAAIPQLQIQPSPQHSRLAIHHSRARSS
B2: the Kd in assay [1] turned out to be 9.5 nM; in assay [2] it was 4.9 nM; in assay [3], 14 nM.
